The target in one assay is actin (ATP-actin:GS1) (Oryctolagus cuniculus, UniProt P68135). The experiment in a line: ITC.
Assay [1] has as its target actin filament pointed end (Oryctolagus cuniculus, UniProt P68135). The experiment in a line: pointed end elongation assay.

B1: Tropomodulin-1 ABS2 160-349 (protein)
chain: GLNSVIKPTQYKPVPDEEPNSTDVEETLERIKNNDPKLEEVNLNNIRNIPIPTLKAYAEALKENSYVKKFSIVGTRSNDPVAYALAEMLKENKVLKTLNVESNFISGAGILRLVEALPYNTSLVEMKIDNQSQPLGNKVEMEIVSMLEKNATLLKFGYHFTQQGPRLRASNAMMNNNDLVRKRRLADLTG
modifications: actin in complex with gelsolin segment 1, ATP
B1: the Kd with actin (ATP-actin:GS1) was 10.5 µM.

B2: Tropomodulin-1 (protein)
chain: MSYRRELEKYRDLDEDEILGALTEEELRTLENELDELDPDNALLPAGLRQKDQTTKAPTGPFKREELLDHLEKQAKEFKDREDLVPYTGEKRGKVWVPKQKPLDPVLESVTLEPELEEALANASDAELCDIAAILGMHTLMSNQQYYQALSSSSIMNKEGLNSVIKPTQYKPVPDEEPNSTDVEETLERIKNNDPKLEEVNLNNIRNIPIPTLKAYAEALKENSYVKKFSIVGTRSNDPVAYALAEMLKENKVLKTLNVESNFISGAGILRLVEALPYNTSLVEMKIDNQSQPLGNKVEMEIVSMLEKNATLLKFGYHFTQQGPRLRASNAMMNNNDLVRKRRLADLTGPIIPKCRSGV
modifications: 1 uM tropomyosin, filament seeds capped at barbed end by capping protein
The molecule B2 registered a Kd in assay [1] of 0.028 µM.

B3: Tropomodulin-1 (protein)
chain: B2 chain
modifications: filament seeds capped at barbed end by capping protein
In assay [1], B3 yielded a Kd of 0.108 µM.

B4: Tropomodulin-1 ABS1 50-101 (protein)
chain: QKDQTTKAPTGPFKREELLDHLEKQAKEFKDREDLVPYTGEKRGKVWVPKQK
modifications: actin in complex with gelsolin segment 1, ATP
Take B4: the Kd in the assay with actin (ATP-actin:GS1) amounted to 7.5 µM.

For the origin of these results see PMC4367809 (2015).
